Literature values, collected in article PMC7380111.

Columns and labels:
[1] = target: NRP1 (Homo sapiens) (UniProt O14786)
[2] = target: NRP2 (Homo sapiens) (UniProt O60462)
UniProt O60462, sequence (O60462 21-931): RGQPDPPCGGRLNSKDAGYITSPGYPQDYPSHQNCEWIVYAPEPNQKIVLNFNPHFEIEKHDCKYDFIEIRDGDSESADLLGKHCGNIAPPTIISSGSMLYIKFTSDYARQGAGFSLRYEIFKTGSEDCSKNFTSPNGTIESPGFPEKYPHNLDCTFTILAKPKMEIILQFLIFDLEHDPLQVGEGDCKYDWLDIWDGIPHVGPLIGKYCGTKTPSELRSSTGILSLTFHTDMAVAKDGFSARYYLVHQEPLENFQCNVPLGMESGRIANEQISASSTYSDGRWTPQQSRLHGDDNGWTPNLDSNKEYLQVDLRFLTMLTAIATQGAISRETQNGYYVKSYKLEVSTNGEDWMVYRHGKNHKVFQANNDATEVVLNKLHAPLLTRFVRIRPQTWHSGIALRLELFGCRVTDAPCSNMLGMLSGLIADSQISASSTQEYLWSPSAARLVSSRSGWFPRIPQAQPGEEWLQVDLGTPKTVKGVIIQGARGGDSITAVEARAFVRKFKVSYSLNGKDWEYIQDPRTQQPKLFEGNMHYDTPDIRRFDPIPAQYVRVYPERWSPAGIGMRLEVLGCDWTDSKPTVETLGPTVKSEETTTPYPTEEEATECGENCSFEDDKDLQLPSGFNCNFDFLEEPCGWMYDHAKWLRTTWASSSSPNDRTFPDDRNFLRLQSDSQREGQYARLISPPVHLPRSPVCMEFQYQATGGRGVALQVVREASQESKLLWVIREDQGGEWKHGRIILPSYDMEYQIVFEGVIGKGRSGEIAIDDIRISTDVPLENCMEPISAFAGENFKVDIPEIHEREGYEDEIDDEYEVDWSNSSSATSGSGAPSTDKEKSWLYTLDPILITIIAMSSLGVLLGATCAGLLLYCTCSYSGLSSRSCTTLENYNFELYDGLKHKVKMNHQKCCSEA

UniProt O14786, sequence (O14786 22-923): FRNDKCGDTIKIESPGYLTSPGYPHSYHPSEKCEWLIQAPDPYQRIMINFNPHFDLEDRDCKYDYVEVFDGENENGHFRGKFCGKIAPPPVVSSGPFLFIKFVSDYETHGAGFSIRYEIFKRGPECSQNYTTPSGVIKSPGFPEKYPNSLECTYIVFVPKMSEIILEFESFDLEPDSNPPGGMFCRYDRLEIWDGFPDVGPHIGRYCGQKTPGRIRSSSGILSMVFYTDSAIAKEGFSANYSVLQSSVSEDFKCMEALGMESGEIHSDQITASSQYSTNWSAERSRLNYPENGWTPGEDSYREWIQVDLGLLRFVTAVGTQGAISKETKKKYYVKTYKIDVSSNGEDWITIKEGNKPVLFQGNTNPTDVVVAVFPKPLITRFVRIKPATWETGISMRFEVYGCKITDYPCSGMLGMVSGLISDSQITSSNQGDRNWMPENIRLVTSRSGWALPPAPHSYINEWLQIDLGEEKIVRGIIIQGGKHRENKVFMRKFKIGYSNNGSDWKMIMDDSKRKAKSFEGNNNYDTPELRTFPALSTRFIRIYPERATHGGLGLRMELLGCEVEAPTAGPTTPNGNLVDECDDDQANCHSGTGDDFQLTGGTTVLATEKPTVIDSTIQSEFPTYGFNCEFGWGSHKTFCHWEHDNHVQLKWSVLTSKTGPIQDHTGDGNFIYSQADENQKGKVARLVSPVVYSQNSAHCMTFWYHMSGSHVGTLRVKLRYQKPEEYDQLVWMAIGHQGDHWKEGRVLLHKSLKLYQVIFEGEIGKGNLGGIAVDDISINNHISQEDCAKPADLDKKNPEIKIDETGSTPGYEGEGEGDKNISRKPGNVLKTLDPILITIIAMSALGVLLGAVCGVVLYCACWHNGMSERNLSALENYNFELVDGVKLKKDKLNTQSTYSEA

- Kd [1]: 0.2 nM
- Kd [2]: 5 nM
Substance: VEGF165 (from UniProt P15692)
